Residue numbers refer to the chain shown, from its start.
T1: denatured granulysin (10His tag, expressed in 293T cells, run on denaturing SDS-PAGE) (UniProt P22749 23-145, limits assumed)
T1 construct: Same protein as native granulysin but denatured; probed on a blot with the test antibodies and anti-human-HRP; not shown: 10His tag
T1 sequence (looked up): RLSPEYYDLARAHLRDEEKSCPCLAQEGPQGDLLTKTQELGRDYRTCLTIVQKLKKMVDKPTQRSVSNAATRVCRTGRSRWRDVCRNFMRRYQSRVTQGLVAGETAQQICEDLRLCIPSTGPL

T2: granulysin mutant RRRRR94/97/100/102/104AAAAA (Homo sapiens (Human), UniProt P22749 23-145, limits assumed)
T2 construct: not shown: His tag
T2 chain: T1 sequence (looked up) with R72A, R75A, R78A, R80A, R82A

T3: granulysin mutant RRRR97/100/104/108AAAA (Homo sapiens (Human), UniProt P22749 23-145, limits assumed)
T3 construct: Expressed in 293T cells, culture supernatant used; not shown: His tag
T3 chain: T1 sequence (looked up) with R75A, R78A, R82A, R86A

B1: GP42-10 (antibody, V domains shown)
VH: QVKLQQSGPDLVKPGSLVKISCKASGYTFSNYDINWVKQRPGQGLEWIGWIDPGNGRTKYNEKFEDKATLTADKSSSTAYMQLSSLTSEDSAVYFCARVGDDYDGDFDYWGQGTTVTVSS
VL: DIELTQSPTIMSASPGEKVTMTCRASESVDSYGNSFMHWYQQKPGLPPKLLIYRASNLESGIPARFSGSGSRTDFTLTINPVEADDVATYYCQQSNEYPYTFGGGTKLEIKR
notes: Phage display clone
B2: GP42-58 (antibody, V domains shown)
VH: B1 VH with S16A, S30T, N31S, N55D, D66G, T69S, Q82L, E89D, D90N, D106G
VL: B1 VL with T9A, M21I, T22S, R24S, H38N, L46Q, A64V, S69G
notes: Phage display clone
B3: GP31-52 (antibody, V domains shown)
VH: B1 VH with K3Q, S16A, T28S, S30T, E65T, D66G, T69S, Q82V, D90N, D106G
VL: DIELTQSPSIMAASLGQKVTMTCSASSSVSSSYLHWYQQKSGASPKPLIHRTSNLASGVPARFSGSGSGNSYSLTISSMEAEDVATYYCFQGSGYPYTFGGGTKLEIKR
notes: Phage display clone
B4: GP42-27 (antibody, V domains shown)
VH: QVKLQESGAELVRPGTSVKISCKASGYTFTNYDINWVKQRPGQGLEWIGWIDPGDGRTKYNENFKDKASLTADKSSSTAYMQLSSLTSEDSAVYYCARVGDDYDGGFDYWGQGTTVTVSS
VL: DIELTQSPASLAVSLGQRATISCRASESVDSYGNSFMHWYQQKPGQPPRLLIYAASNQESGIPARFSGSGSRTDFTLTINPVEADDVATYYCQQSYEDPYTFGGGTKLELKR
notes: Phage display clone
B5: 16.7Chi (antibody, V domains shown)
VH: EVLLQQSGPELVKPGASVKISCKASGYTFTDYNMDWVKQSHGKSLEWIGDINPNVGDTIYNQKFKGKATLTVDKSSSTAYMELRSLTSEDSAVYYCVRSDDDYSWFAHWGQGTLVTVSA
VL: SIVMTQTPKFLLVSAGDRVTITCKASQSVSNDVAWYQQKSGQSPKLLIYYASNRYTGVPDRFTGSGYGTDFTFTISTVQAELAVYFCQQDSSSPLTFGAGTKLELKR
notes: also called chimeric antibody of the variable region of M16.7 fused with the constant region of human IgG1
B6: 106.17Chi (antibody, V domains shown)
VH: B5 VH with S21P, V55N, K63N, G66D, D73N, S91T, D102N, A107T, H108Y
VL: B5 VL
notes: also called chimeric antibody of the variable region of M106.17 fused with the constant region of human IgG1
B7: 34.22Chi (antibody, V domains shown)
VH: QVQLQQSGAELVRPGVSVKISCKGSGYTFTDYSIHWVKQSHAKSLEWIGVISSYYGDARHNQKFKGKATMTVDKSSSTAYMELARLTSEDSAIYYCARDGYYGYAMDYWGQGTSVTVSS
VL: DVVMTQTPLSLPVSLGDQASISCRSTQSLVHSNGNTYLHWYLQKPGQSPKLLIYKVSYRFSGVPDRFSGSGSGTDFTLKISRVEAEDLGVYFCSQSTHVPFTFGSGTKLEIKR
notes: also called chimeric antibody of the variable region of M34.22 fused with the constant region of human IgG1
B8: GP42-09 (antibody, V domains shown)
VH: QVKLQQSGAELVRPGALVKLSCKASGFNIKDYYMHWVKQRPEQGLEWIGWIDPENGNTIYDPKFQGKASITADTSSNTAYLQLSSLTSEDSAVYFCARVGDDYDGDFDYWGQGTTVTVSS
VL: B4 VL with N34D, R49K, A54R, Q58L, L110I
notes: Phage display clone
B9: BGF33-19 (antibody, V domains shown)
VH: QVQLQQSGAELVRPGTSVKVSCKASGYAFTNYLIEWVKQRPGQGLEWIGVINPGSGGTNYNEKFKGKATLTADKSSSTAYMQLSSLTSDDSAVYFCAREGEKHSYYFDYWGQGTTLTVSS
VL: DIVLTQSPASLAVSLGQRATISCRASESVDSYGDSFMHWYQQKPGQPPKLLIYLASNLESGVPARFSGSGSRTDFTLTIDPVEADDAATYYCQQNNEDPPTFGGGTKLEIKR
notes: Phage display clone
B10: BGF2A2-92 (antibody, V domains shown)
VH: EVQLVESGGGLVQPGGSLKLSCAASGFTFSDYYMYWVRQTPEKRLEWVATISDGGDYTYYPDSVKGRFTISRDNAKNNLYLQMSSLKSEDTAMYYCAREGDYYGPFAYWGQGTTLTVSS
VL: DIVMTQSQKFMSTSVGDRVSITCKASQNVGTAVAWYQQKPGQSPKALIYSASYRYSGVPDRFTGSGSGTDFTLTISNVQSEDLAEYFCQQYNSYPYTFGGGTKLEIKR
notes: Phage display clone

target: T1, denatured granulysin (10His tag, …); experiment: blot of denaturing SDS-PAGE probed with the antibody, anti-human-HRP
Source text: The expressed granulysin may be run on a denatured SDS-PAGE and then probed with the test antibodies. Whether the test antibodies bind to the denatured granulysin can be detected using a secondary antibody (containing a reporter group; e.g., anti-human-HRP).

Row | Binder | binding result
1 | B1 | no binding
2 | B2 | no binding
3 | B3 | no binding
4 | B4 | no binding
5 | B5 | no binding
6 | B6 | no binding
7 | B7 | no binding
8 | B8 | no binding

Target: T2, granulysin mutant …
Experiment: ELISA, antibody coated, His-tagged mutant granulysin detected with anti-His-HRP
Procedure: (§1) To the antibody-coated plates, 200 μl of serially diluted samples (wild-type or mutant granulysin) were added to each well. The solutions were then incubated at 37° C. for 2 hours.
(§2) After washing to remove the unbound proteins, the bound proteins that were produced with His-tag (or any other tag or a fusion protein), can be detected with an anti-H is antibody coupled with HRP (for example, Sigma, A7058) at an appropriate dilution (e.g., 1:2000). The secondary antibodies were allowed to bind to the bound proteins by incubation at 37° C. for 2 hours (or any suitable duration and temperatures).

Row | Binder | binding result
9 | B9 | no binding

Target: T3, granulysin mutant RRRR97/100/104/108AAAA
Experiment: as above
Procedure: as §1, §2

Row | Binder | binding result
10 | B10 | no binding
11 | B9 | no binding

From US20140186352A1 (DEVELOPMENT CENTER FOR BIOTECHNOLOGY, published 2014)
